Laboratory results as given in patent US5753435.
Each block holds one binder with its values, some of them ahead of it.

Key:
[1] = molecular target: thioredoxin obtained from Spirulina platensis (Spirulina platensis)
[2] = molecular target: T1, low molecular weight (LMW) polypeptide component of the oxido reductase system of Penicillium chrysogenum (Penicillium chrysogenum)
T1 sequence: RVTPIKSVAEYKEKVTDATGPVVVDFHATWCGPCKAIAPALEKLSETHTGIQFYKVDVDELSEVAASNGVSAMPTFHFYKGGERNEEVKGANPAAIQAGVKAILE

[3] = molecular target: T1, low molecular weight (LMW) polypeptide component of the oxido reductase system of Penicillium chrysogenum (Penicillium chrysogenum); remark: listed apart in the source
[4] = molecular target: thioredoxin obtained from Spirulina platensis (Spirulina platensis); remark: listed apart in the source
[5] = molecular target: T1, low molecular weight (LMW) polypeptide component of the oxido reductase system of Penicillium chrysogenum (Penicillium chrysogenum); remark: listed apart in the source
[6] = molecular target: δ-(L-α-aminoadipyl)-L-cysteinyl-D-valine (ACV) synthetase purified from Acremonium chrysogenum C10 (ATCC 48272) (Acremonium chrysogenum) (UniProt P25464)

bis-ACV reductase activity: µmol NADPH oxidized per minute (340 nm) (µmol NADPH/minute) [1]: 1.93
bis-ACV reductase activity: µmol NADPH oxidized per minute (340 nm) (µmol NADPH/minute) [2]: 2.25
production of isopenicillin N from bis-ACV by IPNS under non-reducing conditions: antibiotic µg/ml by bioassay on Micrococcus luteus [3]: 72 µg/mL
DTNB reductase activity: increase of absorbance at 412 nm after 15 minutes (absorbance at 412 nm) [4]: 0.08
DTNB reductase activity: increase of absorbance at 412 nm after 15 minutes (absorbance at 412 nm) [5]: 0.225
B1: high molecular weight (HMW) polypeptide component of the oxido reductase system of Penicillium chrysogenum (enzyme)
chain: VHSKVVIIGSGPGAHTAAIYLSRAELQPVLYEGMLANGTAAGGQLTTTTDVENFPGFPSGIGGAELMDNMRAQSERFGTEIITETISKLDLSSRPFKMWTEWNDDEGSEPVRTADAVIIATGANARRLNLPGEETYWQNGISACAVCDGAVPIFRNKPLYVIGGGDSAAEEAMFLAKYGSSVTVLVRKDKLRASNIMADRLLAHPKCKVRFNTVATEVIGENKPNGLMTHLRVKDVLSNAEEVVEANGLFYAVGHDPASGLVKGQVELDDEGYIITKPGTSFTNVEGVFACGDVQDKRYRQAITSAGSGCVAALEAEKFIAETETHQEAKPVL

KM for reduction of the protein disulphide in insulin (insulin): 2300 µM
B2: oxido reductase enzyme system of Penicillium chrysogenum (HMW and LMW components together, with NADPH) (enzyme)
chain 1: B1 chain
chain 2: T1 sequence

ACVS activity: dpm of labelled ACV produced from [14C]valine [6]: 509 dpm
B3: low molecular weight (LMW) polypeptide component of the oxido reductase system of Penicillium chrysogenum (protein)
chain: T1 sequence
